Measurements from patent publication US10941182 (Amgen, dated 2021).
Non-standard residues stand in square brackets, D forms with d. Primed or numbered codes have the meaning given here. No end group written: not given here. Oic = O=C(O)[C@@H]1C[C@@H]2CCCC[C@@H]2N1; Phe(4-Cl) = N[C@@H](Cc1ccc(Cl)cc1)C(=O)O; dPhe(4-Cl) = N[C@H](Cc1ccc(Cl)cc1)C(=O)O; d1Nal = N[C@H](Cc1cccc2ccccc12)C(=O)O; d2Nal = N[C@H](Cc1ccc2ccccc2c1)C(=O)O; NMeR = CN[C@@H](CCCNC(=N)N)C(=O)O; hArg = N=C(N)NCCCC[C@H](N)C(=O)O; β3hR = N=C(N)NCCC[C@H](N)CC(=O)O; Cha = N[C@@H](CC1CCCCC1)C(=O)O; β3hQ = NC(=O)CC[C@H](N)CC(=O)O; β3hN = NC(=O)C[C@H](N)CC(=O)O; β3hL = CC(C)C[C@H](N)CC(=O)O; NMeV = CN[C@H](C(=O)O)C(C)C; β3hK = NCCCC[C@H](N)CC(=O)O; β3hP = O=C(O)C[C@@H]1CCCN1; β3hS = N[C@@H](CO)CC(=O)O; Nle = CCCC[C@H](N)C(=O)O; Orn = NCCC[C@H](N)C(=O)O; Pip′ = not defined here; BPhe = β-phenylalanine; Aib = CC(C)(N)C(=O)O; BLeu = β-leucine; βAla = NCCC(=O)O; BLys = β-lysine; Sar = CNCC(=O)O

T1: rat APJ receptor (rat, UniProt Q9JHG3 1-377)
T1 sequence (looked up): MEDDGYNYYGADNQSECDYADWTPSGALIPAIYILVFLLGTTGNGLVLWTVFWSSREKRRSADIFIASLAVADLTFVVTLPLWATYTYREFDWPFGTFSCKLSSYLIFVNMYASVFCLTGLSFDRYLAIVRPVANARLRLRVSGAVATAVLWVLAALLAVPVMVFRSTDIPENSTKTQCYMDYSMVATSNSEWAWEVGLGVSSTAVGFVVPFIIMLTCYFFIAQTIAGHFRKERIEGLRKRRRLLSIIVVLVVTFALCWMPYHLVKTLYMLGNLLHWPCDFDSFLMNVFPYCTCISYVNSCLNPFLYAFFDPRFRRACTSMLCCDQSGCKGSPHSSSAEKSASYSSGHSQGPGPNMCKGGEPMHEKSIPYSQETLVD

T2: human APJ receptor (human, UniProt P35414 1-380)
T2 sequence (looked up): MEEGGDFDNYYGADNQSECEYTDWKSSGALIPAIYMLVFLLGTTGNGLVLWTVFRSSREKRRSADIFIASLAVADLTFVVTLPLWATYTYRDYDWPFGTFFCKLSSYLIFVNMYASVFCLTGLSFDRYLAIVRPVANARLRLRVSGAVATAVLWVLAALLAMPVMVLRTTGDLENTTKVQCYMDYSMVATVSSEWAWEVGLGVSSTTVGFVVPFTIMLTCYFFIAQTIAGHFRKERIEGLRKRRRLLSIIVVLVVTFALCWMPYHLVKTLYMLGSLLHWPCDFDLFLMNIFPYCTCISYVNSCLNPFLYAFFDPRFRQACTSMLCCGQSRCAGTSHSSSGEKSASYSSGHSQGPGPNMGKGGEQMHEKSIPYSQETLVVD


Experiments:
rat APJ receptor = biological target: T1, rat APJ receptor; assay: cell-based or functional assay
human APJ receptor = biological target: T2, human APJ receptor; assay: cell-based or functional assay

Row | Binder | EC50 Rat APJ Receptor (rat APJ receptor) [pM] | EC50 Human APJ Receptor (human APJ receptor) [pM]
1 | [Orn]F[hArg][hArg][β3hQ][hArg]P[hArg][Cha]SHKG[Oic][Nle]P[Phe(4-Cl)] [apelin polypeptide SEQ ID NO: 690] | 183 | 111
2 | [Orn]F[hArg][hArg]Q[hArg]P[hArg][Cha]SHK[Sar][Oic][Nle]P[Phe(4-Cl)] [apelin polypeptide SEQ ID NO: 680] | 401 | 116
3 | Ac-[hArg]Q[dR]P[NMeR][Cha]SHKG[Oic][Nle]P[Phe(4-Cl)]-OH [apelin polypeptide SEQ ID NO: 23] | 32200 | 384
4 | Ac-[Orn]F[hArg][hArg][BLeu][hArg]P[hArg][Cha]SHKG[Oic][Nle]P[Phe(4-Cl)]-OH [apelin polypeptide SEQ ID NO: 29] | 301 | 116
5 | [Orn]F[hArg][hArg]Q[hArg]P[hArg][Cha]SHKG[Sar][Nle]P[Phe(4-Cl)] [apelin polypeptide SEQ ID NO: 683] | 926 | 379
6 | [Orn]F[hArg][hArg]Q[hArg]P[hArg][Cha]SHK[Aib][Oic][Nle]P[Phe(4-Cl)] [apelin polypeptide SEQ ID NO: 681] | 1300 | 723
7 | [Orn]F[hArg][β3hR]Q[hArg]P[hArg][Cha]SHKG[Oic][Nle]P[Phe(4-Cl)] [apelin polypeptide SEQ ID NO: 689] | 349 | 114
8 | [Orn][BPhe][hArg][hArg]Q[hArg]P[hArg][Cha]SHKG[Oic][Nle]P[Phe(4-Cl)] [apelin polypeptide SEQ ID NO: 687] | 175 | 91.8
9 | [Orn]F[hArg][hArg]Q[hArg]P[hArg][Cha]SHKG[Oic][Nle][Aib][Phe(4-Cl)] [apelin polypeptide SEQ ID NO: 685] | 168 | 94.6
10 | Ac-[hArg]Q[dR]P[NMeR][Cha]SHKG[Oic][Nle][d1Nal]-OH (SMILES CCCC[C@H](NC(=O)[C@@H]1C[C@@H]2CCCC[C@@H]2N1C(=O)CNC(=O)[C@H](CCCCN)NC(=O)[C@H](Cc1c[nH]cn1)NC(=O)[C@H](CO)NC(=O)[C@H](CC1CCCCC1)NC(=O)[C@H](CCCNC(=N)N)N(C)C(=O)[C@@H]1CCCN1C(=O)[C@@H](CCCNC(=N)N)NC(=O)[C@H](CCC(N)=O)NC(=O)[C@H](CCCCNC(=N)N)NC(C)=O)C(=O)N[C@H](Cc1cccc2ccccc12)C(=O)O) [apelin polypeptide SEQ ID NO: 25] | 53700 | 1740
11 | Ac-[hArg]Q[dR]P[NMeR][Cha]SHKG[Oic][Nle]P[dPhe(4-Cl)]-OH [apelin polypeptide SEQ ID NO: 24] | 134000 | 7870
12 | [Orn]F[hArg][hArg][β3hN][hArg]P[hArg][Cha]SHKG[Oic][Nle]P[Phe(4-Cl)] [apelin polypeptide SEQ ID NO: 691] | 424 | 453
13 | [Orn]F[hArg][hArg]Q[hArg]P[hArg][Cha]SHKG[Aib][Nle]P[Phe(4-Cl)] [apelin polypeptide SEQ ID NO: 682] | 7980 | 1530
14 | [Orn]F[hArg][hArg]Q[hArg]P[hArg][Cha]S[NMeV]KG[Oic][Nle]P[Phe(4-Cl)] [apelin polypeptide SEQ ID NO: 679] | 33000 | 3630

Results, then the binder that gave them:

Row | EC50 Rat APJ Receptor (rat APJ receptor) [pM] | EC50 Human APJ Receptor (human APJ receptor) [pM] | Binder
15 | 1490 | 330 | [Orn]F[hArg][hArg]Q[hArg]P[hArg][Cha]SH[BLys]G[Oic][Nle]P[Phe(4-Cl)] [apelin polypeptide SEQ ID NO: 702]
16 | 471 | 294 | [Orn]F[hArg][hArg]Q[hArg]P[hArg][Cha]SHKG[Pip′][Nle]P[Phe(4-Cl)] [apelin polypeptide SEQ ID NO: 707]
17 | 2860 | 963 | [Orn]F[hArg][hArg]Q[hArg]P[hArg][Cha]SHK[βAla][Oic][Nle]P[Phe(4-Cl)] [apelin polypeptide SEQ ID NO: 704]
18 | 879 | 316 | [Orn]F[hArg][hArg]Q[hArg]P[hArg][Cha]SH[β3hK]G[Oic][Nle]P[Phe(4-Cl)] [apelin polypeptide SEQ ID NO: 701]
19 | 11100 | 3480 | [Orn]F[hArg][hArg]Q[hArg]P[hArg][Cha]SHKG[βAla][Nle]P[Phe(4-Cl)] [apelin polypeptide SEQ ID NO: 705]
20 | 4390 | 1990 | [Orn]F[hArg][hArg]Q[hArg]P[hArg][Cha]SHKG[β3hP][Nle]P[Phe(4-Cl)] [apelin polypeptide SEQ ID NO: 706]
21 | 384 | 313 | [Orn]F[hArg][hArg]Q[hArg][Pip′][hArg][Cha]SHKG[Oic][Nle]P[Phe(4-Cl)] [apelin polypeptide SEQ ID NO: 695]
22 | 1790 | 785 | [Orn]F[hArg][hArg]Q[hArg]P[hArg][Cha]SHKG[Oic][Nle][βAla][Phe(4-Cl)] [apelin polypeptide SEQ ID NO: 710]
23 | 300 | 261 | [Orn]F[hArg][hArg]Q[hArg]P[β3hR][Cha]SHKG[Oic][Nle]P[Phe(4-Cl)] [apelin polypeptide SEQ ID NO: 696]
24 | 495 | 225 | [Orn]F[hArg][hArg]Q[hArg]P[hArg][β3hL]SHKG[Oic][Nle]P[Phe(4-Cl)] [apelin polypeptide SEQ ID NO: 697]
25 | 351 | 229 | [Orn]F[hArg][hArg]Q[hArg]P[hArg][Cha]SHKG[Oic][Nle][Pip′][Phe(4-Cl)] [apelin polypeptide SEQ ID NO: 711]
26 | 2670 | 1260 | [Orn]F[hArg][hArg]Q[hArg]P[hArg][Cha]SH[βAla]G[Oic][Nle]P[Phe(4-Cl)] [apelin polypeptide SEQ ID NO: 703]
27 | 505 | 229 | [Orn]F[hArg][hArg]Q[β3hR]P[hArg][Cha]SHKG[Oic][Nle]P[Phe(4-Cl)] [apelin polypeptide SEQ ID NO: 693]
28 | 602 | 458 | [Orn]F[hArg][hArg]Q[hArg][β3hP][hArg][Cha]SHKG[Oic][Nle]P[Phe(4-Cl)] [apelin polypeptide SEQ ID NO: 694]
29 | 3110 | 949 | [Orn]F[hArg][hArg]Q[hArg]P[hArg][Cha]S[βAla]KG[Oic][Nle]P[Phe(4-Cl)] [apelin polypeptide SEQ ID NO: 700]
30 | 734 | 539 | [Orn]F[hArg][hArg]Q[hArg]P[hArg][Cha][β3hS]HKG[Oic][Nle]P[Phe(4-Cl)] [apelin polypeptide SEQ ID NO: 698]
31 | 821 | 654 | [Orn]F[hArg][hArg]Q[hArg]P[hArg][Cha]SHKG[Oic][Nle][d1Nal] [apelin polypeptide SEQ ID NO: 712]
32 | 603 | 440 | [Orn]F[hArg][hArg]Q[hArg]P[hArg][Cha][βAla]HKG[Oic][Nle]P[Phe(4-Cl)] [apelin polypeptide SEQ ID NO: 699]
33 | 1140 | 1540 | [Orn]F[hArg][hArg]Q[hArg]P[hArg][Cha]SHKG[Oic][Nle][d2Nal] [apelin polypeptide SEQ ID NO: 713]
34 | 862 | 555 | [Orn]F[hArg][hArg]Q[hArg]P[hArg][Cha]SHKG[Oic][Nle][β3hP][Phe(4-Cl)] [apelin polypeptide SEQ ID NO: 709]
